A word on the Km: it is the concentration of substrate that gives half-maximal velocity.

The values that follow come from article PMC9202514.

Substrate in this series: Nc1ncnc2c1ncn2[C@@H]1O[C@H](COP(=O)(O)OP(=O)(O)OP(=O)(O)O)[C@@H](O)[C@H]1O
Description: DIPP1-coupled Pi-release malachite green assay. It is filed as biochemical, Zea mays. The note with it: 25 μM InsP6, 3.5 mM MgCl2, 100 mM KCl, pH 7.2, 25 °C.

B1: ZmITPK1 (Zea mays) (protein)
chain: MASDAAAEPSSGVTHPPRYVIGYALAPKKQQSFIQPSLVAQAASRGMDLVPVDASQPLAEQGPFHLLIHKLYGDDWRAQLVAFAARHPAVPIVDPPHAIDRLHNRISMLQVVSELDHAADQDSTFGIPSQVVVYDAAALADFGLLAALRFPLIAKPLVADGTAKSHKMSLVYHREGLGKLRPPLVLQEFVNHGGVIFKVYVVGGHVTCVKRRSLPDVSPEDDASAQGSVSFSQVSNLPTERTAEEYYGEKSLEDAVVPPAAFINQIAGGLRRALGLQLFNFDMIRDVRAGDRYLVIDINYFPGYAKMPGYETVLTDFFWEMVHKDGVGNQQEEKGANHVVVK
For the protein B1, the Michaelis constant (Km) was 364 µM.
